Measurements published in patent EP3088890B1 (Chugai Seiyaku Kabushiki Kaisha, dated 2020).

T1: GPC3 peptide 1-30 (SEQ ID NO: 1) (human)
T1 construct: Synthetic 30-residue peptide of GPC3
T1 peptide: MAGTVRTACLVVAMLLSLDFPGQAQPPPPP

T2: GPC3 peptide 21-50 (SEQ ID NO: 2) (human)
T2 construct: Synthetic 30-residue peptide of GPC3
T2 peptide: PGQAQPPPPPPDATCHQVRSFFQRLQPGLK

T3: GPC3 peptide 41-70 (SEQ ID NO: 3) (human)
T3 construct: Synthetic 30-residue peptide of GPC3
T3 peptide: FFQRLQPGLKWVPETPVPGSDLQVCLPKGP

T4: GPC3 peptide 61-90 (SEQ ID NO: 4) (human)
T4 construct: Synthetic 30-residue peptide of GPC3
T4 peptide: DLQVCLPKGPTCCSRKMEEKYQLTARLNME

T5: GPC3 peptide 81-110 (SEQ ID NO: 5) (human)
T5 construct: Synthetic 30-residue peptide of GPC3
T5 peptide: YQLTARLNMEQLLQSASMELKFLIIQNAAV

T6: GPC3 peptide 101-130 (SEQ ID NO: 6) (human)
T6 construct: Synthetic 30-residue peptide of GPC3
T6 peptide: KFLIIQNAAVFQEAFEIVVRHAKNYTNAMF

T7: GPC3 peptide 121-150 (SEQ ID NO: 7) (human)
T7 construct: Synthetic 30-residue peptide of GPC3
T7 peptide: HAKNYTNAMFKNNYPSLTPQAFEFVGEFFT

T8: GPC3 peptide 141-170 (SEQ ID NO: 8) (human)
T8 construct: Synthetic 30-residue peptide of GPC3
T8 peptide: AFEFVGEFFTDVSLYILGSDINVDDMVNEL

T9: GPC3 peptide 161-190 (SEQ ID NO: 9) (human)
T9 construct: Synthetic 30-residue peptide of GPC3
T9 peptide: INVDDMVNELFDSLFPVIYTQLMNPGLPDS

T10: GPC3 peptide 181-210 (SEQ ID NO: 10) (human)
T10 construct: Synthetic 30-residue peptide of GPC3
T10 peptide: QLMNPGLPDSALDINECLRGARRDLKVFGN

T11: GPC3 peptide 201-230 (SEQ ID NO: 11) (human)
T11 construct: Synthetic 30-residue peptide of GPC3
T11 peptide: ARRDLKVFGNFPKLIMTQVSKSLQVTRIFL

T12: GPC3 peptide 221-250 (SEQ ID NO: 12) (human)
T12 construct: Synthetic 30-residue peptide of GPC3
T12 peptide: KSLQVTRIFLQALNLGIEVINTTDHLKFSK

T13: GPC3 peptide 241-270 (SEQ ID NO: 13) (human)
T13 construct: Synthetic 30-residue peptide of GPC3
T13 peptide: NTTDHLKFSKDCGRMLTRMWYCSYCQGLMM

T14: GPC3 peptide 261-290 (SEQ ID NO: 14) (human)
T14 construct: Synthetic 30-residue peptide of GPC3
T14 peptide: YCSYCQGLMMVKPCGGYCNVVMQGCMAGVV

T15: GPC3 peptide 281-310 (SEQ ID NO: 15) (human)
T15 construct: Synthetic 30-residue peptide of GPC3
T15 peptide: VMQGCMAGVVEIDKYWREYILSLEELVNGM

T16: GPC3 peptide 301-330 (SEQ ID NO: 16) (human)
T16 construct: Synthetic 30-residue peptide of GPC3
T16 peptide: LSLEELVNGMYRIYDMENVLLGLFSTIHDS

T17: GPC3 peptide 321-350 (SEQ ID NO: 17) (human)
T17 construct: Synthetic 30-residue peptide of GPC3
T17 peptide: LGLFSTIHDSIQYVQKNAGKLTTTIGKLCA

T18: GPC3 peptide 341-370 (SEQ ID NO: 18) (human)
T18 construct: Synthetic 30-residue peptide of GPC3
T18 peptide: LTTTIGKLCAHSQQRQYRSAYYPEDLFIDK

T19: GPC3 peptide 361-390 (SEQ ID NO: 19) (human)
T19 construct: Synthetic 30-residue peptide of GPC3
T19 peptide: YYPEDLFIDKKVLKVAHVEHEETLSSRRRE

T20: GPC3 peptide 381-410 (SEQ ID NO: 20) (human)
T20 construct: Synthetic 30-residue peptide of GPC3
T20 peptide: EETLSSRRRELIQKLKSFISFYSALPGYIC

T21: GPC3 peptide 401-430 (SEQ ID NO: 21) (human)
T21 construct: Synthetic 30-residue peptide of GPC3
T21 peptide: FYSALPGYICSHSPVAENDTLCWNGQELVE

T22: GPC3 peptide 421-450 (SEQ ID NO: 22) (human)
T22 construct: Synthetic 30-residue peptide of GPC3
T22 peptide: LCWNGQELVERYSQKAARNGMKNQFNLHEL

T23: GPC3 peptide 441-470 (SEQ ID NO: 23) (human)
T23 construct: Synthetic 30-residue peptide of GPC3
T23 peptide: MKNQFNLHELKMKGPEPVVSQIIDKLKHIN

T24: GPC3 peptide 461-490 (SEQ ID NO: 24) (human)
T24 construct: Synthetic 30-residue peptide of GPC3
T24 peptide: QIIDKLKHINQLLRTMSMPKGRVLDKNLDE

T25: GPC3 peptide 481-510 (SEQ ID NO: 25) (human)
T25 construct: Synthetic 30-residue peptide of GPC3
T25 peptide: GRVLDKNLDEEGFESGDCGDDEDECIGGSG

T26: GPC3 peptide 501-530 (SEQ ID NO: 26) (human)
T26 construct: Synthetic 30-residue peptide of GPC3
T26 peptide: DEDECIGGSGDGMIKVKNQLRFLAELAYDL

T27: GPC3 peptide 521-550 (SEQ ID NO: 27) (human)
T27 construct: Synthetic 30-residue peptide of GPC3
T27 peptide: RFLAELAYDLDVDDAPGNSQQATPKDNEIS

T28: GPC3 peptide 541-570 (SEQ ID NO: 28) (human)
T28 construct: Synthetic 30-residue peptide of GPC3
T28 peptide: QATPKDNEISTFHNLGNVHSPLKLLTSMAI

T29: GPC3 peptide 551-580 (SEQ ID NO: 29) (human)
T29 construct: Synthetic 30-residue peptide of GPC3
T29 peptide: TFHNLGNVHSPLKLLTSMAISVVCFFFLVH

B1: GT114 antibody (antibody, IgG1, V domains shown)
VH: DVQLQESGPGLVKPSQSLSLTCTVTGYSITSDSAWNWIRQFPGNKLEWMAYIMYSGITSYNPSLKSRISITRDTAKNQFFLQLNSVTTEDSATYYCSRGYWYFDVWGAGTTVTVSS
VL: QIVLTQSPAIMSASLGEEITLTCSASSSVSYMHWYQQKSGTSPKLLIYSTSILASGVPSRFSGSGSGTFYSLTISSVEAEDAADYYCLQWITYRTFGGGTKLEIKR

Target: T1, GPC3 peptide 1-30 (SEQ ID NO: 1)
Assay: peptide ELISA, peptide on plate

Q: Does B1 bind?
A: no binding (tested: 2 µg/mL)

Target: T2, GPC3 peptide 21-50 (SEQ ID NO: 2)
Assay: peptide ELISA, peptide on plate

Q: Does B1 bind?
A: no binding (tested: 2 µg/mL)

Target: T3, GPC3 peptide 41-70 (SEQ ID NO: 3)
Assay: peptide ELISA, peptide on plate

Q: Does B1 bind?
A: no binding (tested: 2 µg/mL)

Target: T4, GPC3 peptide 61-90 (SEQ ID NO: 4)
Assay: peptide ELISA, peptide on plate

Q: Does B1 bind?
A: no binding (tested: 2 µg/mL)

Target: T5, GPC3 peptide 81-110 (SEQ ID NO: 5)
Assay: peptide ELISA, peptide on plate

Q: Does B1 bind?
A: no binding (tested: 2 µg/mL)

Target: T6, GPC3 peptide 101-130 (SEQ ID NO: 6)
Assay: peptide ELISA, peptide on plate

Q: Does B1 bind?
A: no binding (tested: 2 µg/mL)

Target: T7, GPC3 peptide 121-150 (SEQ ID NO: 7)
Assay: peptide ELISA, peptide on plate

Q: Does B1 bind?
A: no binding (tested: 2 µg/mL)

Target: T8, GPC3 peptide 141-170 (SEQ ID NO: 8)
Assay: peptide ELISA, peptide on plate

Q: Does B1 bind?
A: no binding (tested: 2 µg/mL)

Target: T9, GPC3 peptide 161-190 (SEQ ID NO: 9)
Assay: peptide ELISA, peptide on plate

Q: Does B1 bind?
A: no binding (tested: 2 µg/mL)

Target: T10, GPC3 peptide 181-210 (SEQ ID NO: 10)
Assay: peptide ELISA, peptide on plate

Q: Does B1 bind?
A: no binding (tested: 2 µg/mL)

Target: T11, GPC3 peptide 201-230 (SEQ ID NO: 11)
Assay: peptide ELISA, peptide on plate

Q: Does B1 bind?
A: no binding (tested: 2 µg/mL)

Target: T12, GPC3 peptide 221-250 (SEQ ID NO: 12)
Assay: peptide ELISA, peptide on plate

Q: Does B1 bind?
A: no binding (tested: 2 µg/mL)

Target: T13, GPC3 peptide 241-270 (SEQ ID NO: 13)
Assay: peptide ELISA, peptide on plate

Q: Does B1 bind?
A: no binding (tested: 2 µg/mL)

Target: T14, GPC3 peptide 261-290 (SEQ ID NO: 14)
Assay: peptide ELISA, peptide on plate

Q: Does B1 bind?
A: no binding (tested: 2 µg/mL)

Target: T15, GPC3 peptide 281-310 (SEQ ID NO: 15)
Assay: peptide ELISA, peptide on plate

Q: Does B1 bind?
A: no binding (tested: 2 µg/mL)

Target: T16, GPC3 peptide 301-330 (SEQ ID NO: 16)
Assay: peptide ELISA, peptide on plate

Q: Does B1 bind?
A: no binding (tested: 2 µg/mL)

Target: T17, GPC3 peptide 321-350 (SEQ ID NO: 17)
Assay: peptide ELISA, peptide on plate

Q: Does B1 bind?
A: no binding (tested: 2 µg/mL)

Target: T18, GPC3 peptide 341-370 (SEQ ID NO: 18)
Assay: peptide ELISA, peptide on plate

Q: Does B1 bind?
A: no binding (tested: 2 µg/mL)

Target: T19, GPC3 peptide 361-390 (SEQ ID NO: 19)
Assay: peptide ELISA, peptide on plate

Q: Does B1 bind?
A: no binding (tested: 2 µg/mL)

Target: T20, GPC3 peptide 381-410 (SEQ ID NO: 20)
Assay: peptide ELISA, peptide on plate

Q: Does B1 bind?
A: no binding (tested: 2 µg/mL)

Target: T21, GPC3 peptide 401-430 (SEQ ID NO: 21)
Assay: peptide ELISA, peptide on plate

Q: Does B1 bind?
A: no binding (tested: 2 µg/mL)

Target: T22, GPC3 peptide 421-450 (SEQ ID NO: 22)
Assay: peptide ELISA, peptide on plate

Q: Does B1 bind?
A: no binding (tested: 2 µg/mL)

Target: T23, GPC3 peptide 441-470 (SEQ ID NO: 23)
Assay: peptide ELISA, peptide on plate

Q: Does B1 bind?
A: no binding (tested: 2 µg/mL)

Target: T24, GPC3 peptide 461-490 (SEQ ID NO: 24)
Assay: peptide ELISA, peptide on plate

Q: Does B1 bind?
A: no binding (tested: 2 µg/mL)

Target: T25, GPC3 peptide 481-510 (SEQ ID NO: 25)
Assay: peptide ELISA, peptide on plate

Q: Does B1 bind?
A: no binding (tested: 2 µg/mL)

Target: T26, GPC3 peptide 501-530 (SEQ ID NO: 26)
Assay: peptide ELISA, peptide on plate

Q: Does B1 bind?
A: no binding (tested: 2 µg/mL)

Target: T27, GPC3 peptide 521-550 (SEQ ID NO: 27)
Assay: peptide ELISA, peptide on plate

Q: Does B1 bind?
A: no binding (tested: 2 µg/mL)

Target: T28, GPC3 peptide 541-570 (SEQ ID NO: 28)
Assay: peptide ELISA, peptide on plate

Q: Does B1 bind?
A: no binding (tested: 2 µg/mL)

Target: T29, GPC3 peptide 551-580 (SEQ ID NO: 29)
Assay: peptide ELISA, peptide on plate

Q: Does B1 bind?
A: no binding (tested: 2 µg/mL)

target: T30, AW3, C-terminally His-tagged recombinant product of positions 1 to 218 of GPC3 (human, UniProt P51654 25-218); assay: Western blot, pellets of CHO cells expressing the product
T30 construct: Expressed in CHO cells, cell pellets used in Western blot; The range is as printed and starts at position 1; not shown: C-terminal His tag
T30 sequence (P51654 25-218): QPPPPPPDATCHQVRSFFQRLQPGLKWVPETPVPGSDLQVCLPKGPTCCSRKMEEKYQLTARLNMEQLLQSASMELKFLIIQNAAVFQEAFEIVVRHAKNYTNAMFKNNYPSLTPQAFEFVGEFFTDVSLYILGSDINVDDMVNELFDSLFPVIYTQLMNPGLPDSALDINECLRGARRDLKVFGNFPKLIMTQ

Q: Does B1 bind?
A: no binding
